System: Escherichia coli TOP10
Assay: shrunken log2 fold change of peptide-encoding DNA abundance (4.5 h post-induction vs induction); higher = less antimicrobial activity (less host growth inhibition)
Details: time post-induction: 4.5 h; library: site-saturation at positions 5, 18, 19, 20
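Further: peptides expressed intracellularly from a pBAD plasmid library in pooled LB shake-flask culture, induced with 0.3% L-arabinose, DNA abundance read by NGS, three biological replicates, DESeq2 with apeglm shrinkage.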

Row | Sequence | shrunken log2 fold change
1 | RRIRKRPPRLPRPRPRPRSTPRP | 0.177
2 | RRIRKRPPRLPRPRPRPRTHPRP | 0.425
3 | RRIRKRPPRLPRPRPRPRVGPRP | 0.279
4 | RRIRKRPPRLPRPRPRPRVSPRP | 0.198
5 | RRIRKRPPRLPRPRPRPRVTPRP | 0.138
6 | RRIRKRPPRLPRPRPRPRYYPRP | -0.248
7 | RRIRKRPPRLPRPRPRPSCGPRP | 0.817
8 | RRIRKRPPRLPRPRPRPSCNPRP | 0.149
9 | RRIRKRPPRLPRPRPRPSCSPRP | -0.0597
10 | RRIRKRPPRLPRPRPRPSDDPRP | 0.154
11 | RRIRKRPPRLPRPRPRPSFDPRP | 0.301
12 | RRIRKRPPRLPRPRPRPSFPPRP | -0.0425
13 | RRIRKRPPRLPRPRPRPSGIPRP | 0.149
14 | RRIRKRPPRLPRPRPRPSGQPRP | 0.244
15 | RRIRKRPPRLPRPRPRPSGYPRP | -0.0136
16 | RRIRKRPPRLPRPRPRPSHLPRP | -0.124
17 | RRIRKRPPRLPRPRPRPSKCPRP | -0.388
18 | RRIRKRPPRLPRPRPRPSKLPRP | 0.0104
19 | RRIRKRPPRLPRPRPRPSKVPRP | -0.131
20 | RRIRKRPPRLPRPRPRPSLKPRP | -0.0893
21 | RRIRKRPPRLPRPRPRPSLNPRP | -0.0764
22 | RRIRKRPPRLPRPRPRPSNQPRP | -0.018
23 | RRIRKRPPRLPRPRPRPSPIPRP | 0.0333
24 | RRIRKRPPRLPRPRPRPSPVPRP | 0.191
25 | RRIRKRPPRLPRPRPRPSQTPRP | 0.026

Row | Sequence | shrunken log2 fold change
26 | RRIRKRPPRLPRPRPRPSRKPRP | 0.0758
27 | RRIRKRPPRLPRPRPRPSTGPRP | -0.284
28 | RRIRKRPPRLPRPRPRPSVAPRP | 0.394
29 | RRIRKRPPRLPRPRPRPSVFPRP | 0.244
30 | RRIRKRPPRLPRPRPRPSVGPRP | 0.0485
31 | RRIRKRPPRLPRPRPRPSVWPRP | 0.645
32 | RRIRKRPPRLPRPRPRPTAAPRP | 0.757
33 | RRIRKRPPRLPRPRPRPTATPRP | 1.4
34 | RRIRKRPPRLPRPRPRPTAYPRP | 0.185
35 | RRIRKRPPRLPRPRPRPTDDPRP | 1.01
36 | RRIRKRPPRLPRPRPRPTDPPRP | 0.0238
37 | RRIRKRPPRLPRPRPRPTFFPRP | 0.368
38 | RRIRKRPPRLPRPRPRPTFQPRP | 0.05
39 | RRIRKRPPRLPRPRPRPTGQPRP | 0.84
40 | RRIRKRPPRLPRPRPRPTGSPRP | 0.423
41 | RRIRKRPPRLPRPRPRPTHAPRP | 0.505
42 | RRIRKRPPRLPRPRPRPTHVPRP | -0.305
43 | RRIRKRPPRLPRPRPRPTKLPRP | 0.246
44 | RRIRKRPPRLPRPRPRPTLCPRP | 0.403
45 | RRIRKRPPRLPRPRPRPTLPPRP | 0.878
46 | RRIRKRPPRLPRPRPRPTNAPRP | 0.733
47 | RRIRKRPPRLPRPRPRPTPMPRP | 0.555
48 | RRIRKRPPRLPRPRPRPTQPPRP | 0.606
49 | RRIRKRPPRLPRPRPRPTRVPRP | 0.53
50 | RRIRKRPPRLPRPRPRPTRYPRP | 0.438

Row | Sequence | shrunken log2 fold change
51 | RRIRKRPPRLPRPRPRPTSMPRP | 0.508
52 | RRIRKRPPRLPRPRPRPTTMPRP | 0.171
53 | RRIRKRPPRLPRPRPRPTVEPRP | 0.377
54 | RRIRKRPPRLPRPRPRPTVFPRP | 0.0385
55 | RRIRKRPPRLPRPRPRPTVLPRP | 0.0143
56 | RRIRKRPPRLPRPRPRPTWAPRP | 0.0687
57 | RRIRKRPPRLPRPRPRPTWLPRP | 0.638
58 | RRIRKRPPRLPRPRPRPTWNPRP | 0.197
59 | RRIRKRPPRLPRPRPRPTYEPRP | 0.367
60 | RRIRKRPPRLPRPRPRPTYWPRP | 0.141
61 | RRIRKRPPRLPRPRPRPVCMPRP | 0.0492
62 | RRIRKRPPRLPRPRPRPVCWPRP | 0.897
63 | RRIRKRPPRLPRPRPRPVCYPRP | 0.242
64 | RRIRKRPPRLPRPRPRPVDRPRP | 0.248
65 | RRIRKRPPRLPRPRPRPVDVPRP | 0.116
66 | RRIRKRPPRLPRPRPRPVEFPRP | 0.192
67 | RRIRKRPPRLPRPRPRPVFLPRP | -0.0387
68 | RRIRKRPPRLPRPRPRPVFRPRP | 0.278
69 | RRIRKRPPRLPRPRPRPVFYPRP | -0.0751
70 | RRIRKRPPRLPRPRPRPVGQPRP | 0.0743
71 | RRIRKRPPRLPRPRPRPVGTPRP | 2.46
72 | RRIRKRPPRLPRPRPRPVIGPRP | 0.233
73 | RRIRKRPPRLPRPRPRPVKFPRP | 0.048
74 | RRIRKRPPRLPRPRPRPVLWPRP | 1.78
75 | RRIRKRPPRLPRPRPRPVNGPRP | 0.0996

Row | Sequence | shrunken log2 fold change
76 | RRIRKRPPRLPRPRPRPVNKPRP | 0.22
77 | RRIRKRPPRLPRPRPRPVRDPRP | 0.48
78 | RRIRKRPPRLPRPRPRPVRGPRP | 0.732
79 | RRIRKRPPRLPRPRPRPVTEPRP | 0.42
80 | RRIRKRPPRLPRPRPRPVTHPRP | 0.0561
81 | RRIRKRPPRLPRPRPRPVTIPRP | 0.0361
82 | RRIRKRPPRLPRPRPRPVTYPRP | -0.0821
83 | RRIRKRPPRLPRPRPRPVVPPRP | -0.093
84 | RRIRKRPPRLPRPRPRPVWGPRP | 3.44
85 | RRIRKRPPRLPRPRPRPWALPRP | -0.0102
86 | RRIRKRPPRLPRPRPRPWCIPRP | -0.103
87 | RRIRKRPPRLPRPRPRPWCTPRP | -0.0115
88 | RRIRKRPPRLPRPRPRPWDDPRP | 0.0248
89 | RRIRKRPPRLPRPRPRPWDGPRP | -0.0231
90 | RRIRKRPPRLPRPRPRPWFFPRP | -0.043
91 | RRIRKRPPRLPRPRPRPWFHPRP | -0.838
92 | RRIRKRPPRLPRPRPRPWFIPRP | -0.131
93 | RRIRKRPPRLPRPRPRPWFKPRP | -0.0948
94 | RRIRKRPPRLPRPRPRPWFLPRP | -0.157
95 | RRIRKRPPRLPRPRPRPWKHPRP | -0.339
96 | RRIRKRPPRLPRPRPRPWKTPRP | 0.0649
97 | RRIRKRPPRLPRPRPRPWLAPRP | 0.201
98 | RRIRKRPPRLPRPRPRPWLSPRP | 0.0773
99 | RRIRKRPPRLPRPRPRPWMAPRP | 0.102
100 | RRIRKRPPRLPRPRPRPWNYPRP | -0.154

Row | Sequence | shrunken log2 fold change
101 | RRIRKRPPRLPRPRPRPWQGPRP | 0.0142
102 | RRIRKRPPRLPRPRPRPWSDPRP | -0.0989
103 | RRIRKRPPRLPRPRPRPWVNPRP | 0.0319
104 | RRIRKRPPRLPRPRPRPWWDPRP | -0.0115
105 | RRIRKRPPRLPRPRPRPWWFPRP | -0.0467
106 | RRIRKRPPRLPRPRPRPWWGPRP | 0.0849
107 | RRIRKRPPRLPRPRPRPWYGPRP | -0.188
108 | RRIRKRPPRLPRPRPRPYAKPRP | -0.0729
109 | RRIRKRPPRLPRPRPRPYCIPRP | -0.0175
110 | RRIRKRPPRLPRPRPRPYEFPRP | 0.101
111 | RRIRKRPPRLPRPRPRPYEHPRP | 0.049
112 | RRIRKRPPRLPRPRPRPYGCPRP | -0.00151
113 | RRIRKRPPRLPRPRPRPYHAPRP | 0.0039
114 | RRIRKRPPRLPRPRPRPYHHPRP | -0.247
115 | RRIRKRPPRLPRPRPRPYILPRP | -0.0873
116 | RRIRKRPPRLPRPRPRPYKHPRP | -0.347
117 | RRIRKRPPRLPRPRPRPYKIPRP | -0.305
118 | RRIRKRPPRLPRPRPRPYKRPRP | -0.338
119 | RRIRKRPPRLPRPRPRPYNKPRP | -0.626
120 | RRIRKRPPRLPRPRPRPYNWPRP | -0.155
121 | RRIRKRPPRLPRPRPRPYPYPRP | -0.125
122 | RRIRKRPPRLPRPRPRPYRGPRP | -0.231
123 | RRIRKRPPRLPRPRPRPYSMPRP | -0.39
124 | RRIRKRPPRLPRPRPRPYSSPRP | -0.239
125 | RRIRKRPPRLPRPRPRPYVSPRP | -0.438

Row | Sequence | shrunken log2 fold change
126 | RRIRKRPPRLPRPRPRPYVTPRP | -0.401
127 | RRIRKRPPRLPRPRPRPYWGPRP | -0.000921
128 | RRIRKRPPRLPRPRPRPYWIPRP | -0.0363
129 | RRIRKRPPRLPRPRPRPYWRPRP | -0.426
130 | RRIRKRPPRLPRPRPRPYYLPRP | -0.278
131 | RRIRLRPPRLPRPRPRPAAFPRP | 0.184
132 | RRIRLRPPRLPRPRPRPAANPRP | 0.273
133 | RRIRLRPPRLPRPRPRPAASPRP | 0.0421
134 | RRIRLRPPRLPRPRPRPAFAPRP | 0.368
135 | RRIRLRPPRLPRPRPRPAHGPRP | -0.0453
136 | RRIRLRPPRLPRPRPRPAHVPRP | 0.241
137 | RRIRLRPPRLPRPRPRPAHWPRP | 0.608
138 | RRIRLRPPRLPRPRPRPAIVPRP | 0.0701
139 | RRIRLRPPRLPRPRPRPAKGPRP | -0.00764
140 | RRIRLRPPRLPRPRPRPAKHPRP | -0.221
141 | RRIRLRPPRLPRPRPRPALCPRP | 0.00966
142 | RRIRLRPPRLPRPRPRPAMWPRP | 0.373
143 | RRIRLRPPRLPRPRPRPANAPRP | 0.0811
144 | RRIRLRPPRLPRPRPRPAPNPRP | 0.555
145 | RRIRLRPPRLPRPRPRPAQMPRP | 0.122
146 | RRIRLRPPRLPRPRPRPAQSPRP | 0.485
147 | RRIRLRPPRLPRPRPRPASSPRP | -0.0827
148 | RRIRLRPPRLPRPRPRPASYPRP | -0.308
149 | RRIRLRPPRLPRPRPRPATNPRP | -0.253
150 | RRIRLRPPRLPRPRPRPAVRPRP | 0.0913
